According to publication PMC11703246:
Where “and” joins values, the source holds several entries; their conditions need not be identical. Equal entries are not always repeated. Where two headings read alike, the source gives them in different places.

What was measured:
Experiment in all cases: mass photometry
[1] = molecular target: ΔL6-PopZ (PopZ lacking residues 172-177) (Caulobacter crescentus)
[2] = molecular target: ΔL6-PopZ (PopZ lacking residues 172-177) (Caulobacter crescentus); remark: listed apart in the source
[3] = molecular target: PopZ P146A (Caulobacter crescentus)
[4] = molecular target: PopZ P146A (Caulobacter crescentus); remark: listed apart in the source
[5] = molecular target: isolated OD-ΔL6 of PopZ (residues 102-171) (Caulobacter crescentus)
[6] = molecular target: ΔH2-PopZ (PopZ lacking residues 102-128) (Caulobacter crescentus)
[7] = molecular target: polar organizing protein Z (PopZ), wild type (Caulobacter crescentus)
[8] = molecular target: Δloop-PopZ (PopZ lacking residues 129-134) (Caulobacter crescentus)

## ΔL6-PopZ (PopZ lacking residues 172-177) (domain or fragment)
[1]
  stoichiometry N: 6
[2]
  stoichiometry N: 6

## PopZ P146A (natural protein)
[3]
  stoichiometry N: 3
[4]
  stoichiometry N: 3

## isolated OD-ΔL6 of PopZ (residues 102-171) (domain or fragment)
[5]
  stoichiometry N: 6

## ΔH2-PopZ (PopZ lacking residues 102-128) (natural protein)
[6]
  stoichiometry N: 3 and 6

## polar organizing protein Z (PopZ), wild type (natural protein)
[7]
  stoichiometry N: 12 and 18

## Δloop-PopZ (PopZ lacking residues 129-134) (natural protein)
[8]
  stoichiometry N: 3
